From patent US20190022211A1 (CELLTRION, published 2019)
Several values for one entry are separate records, joined by “and”; a condition that tells them apart may be missing. Equal values may be shown once.

T1: G protein of rabies virus ERA, on virus (rabies virus, UniProt P03524 20-524)
T1 sequence: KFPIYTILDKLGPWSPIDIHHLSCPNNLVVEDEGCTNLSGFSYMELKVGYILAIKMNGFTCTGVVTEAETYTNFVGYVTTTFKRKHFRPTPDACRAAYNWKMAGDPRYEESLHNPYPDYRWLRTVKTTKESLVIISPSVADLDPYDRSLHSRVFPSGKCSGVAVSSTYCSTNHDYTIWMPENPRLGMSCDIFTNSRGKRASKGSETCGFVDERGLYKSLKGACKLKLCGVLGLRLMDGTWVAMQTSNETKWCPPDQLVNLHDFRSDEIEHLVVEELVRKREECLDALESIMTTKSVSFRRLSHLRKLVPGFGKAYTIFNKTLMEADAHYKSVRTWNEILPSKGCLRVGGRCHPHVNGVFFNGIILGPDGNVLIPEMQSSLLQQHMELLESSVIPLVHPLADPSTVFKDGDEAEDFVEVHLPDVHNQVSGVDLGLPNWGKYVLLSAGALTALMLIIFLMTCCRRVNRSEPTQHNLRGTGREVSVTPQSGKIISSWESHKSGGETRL


Legend:
Assay in all cases: cell-based or functional assay
[1] = molecular target: G protein of rabies virus Bat Ef (Bat, Pennsylvania, USA), on virus (rabies virus)
[2] = molecular target: T1, G protein of rabies virus ERA, on virus
[3] = molecular target: G protein of rabies virus RAC (Raccoon, Georgia, USA), on virus (rabies virus)
[4] = molecular target: G protein of rabies virus TN 132 (Bat, Tennessee, USA), on virus (rabies virus)
[5] = molecular target: G protein of rabies virus TN410 (Bat, Tennessee, USA), on virus (rabies virus)
[6] = molecular target: G protein of rabies virus Dog thai (Dog, Thailand), on virus (rabies virus)
[7] = molecular target: G protein of rabies virus RVHN (Human (ex, wolf), Russia, Arctic), on virus (rabies virus)
[8] = molecular target: G protein of rabies virus TX SK 4380 (Skunk, Texas, USA), on virus (rabies virus)
[9] = molecular target: G protein of rabies virus AL Bat (Bat, California, USA), on virus (rabies virus)
[10] = molecular target: G protein of rabies virus Phi 002 (231) (Human/dog, Philippines), on virus (rabies virus)
[11] = molecular target: G protein of rabies virus Gray FX-AZ (AZ fox) (Gray Fox, Arizona, USA), on virus (rabies virus)
[12] = molecular target: G protein of rabies virus Dog Arg (Dog, Argentina), on virus (rabies virus)
[13] = molecular target: G protein of rabies virus MI1625 (Bat, Tennessee, USA), on virus (rabies virus)
[14] = molecular target: G protein of rabies virus Myotis (Bat, Washington, USA), on virus (rabies virus)
[15] = molecular target: G protein of rabies virus TN-269 (Bat, Tennessee, USA), on virus (rabies virus)
[16] = molecular target: G protein of Wu ABLV (Australian bat lyssa, Genotype 7), on virus (Australian bat lyssa, Genotype 7)
[17] = molecular target: G protein of rabies virus AZ Bat (Bat, Arizona), on virus (rabies virus)
[18] = molecular target: G protein of rabies virus 323R (Dog/Coyote, Texas, USA), on virus (rabies virus)
[19] = molecular target: G protein of rabies virus Dog son (Dog, Mexico), on virus (rabies virus)

Row | Binder | neutralizing activity (RFFIT) [1] | neutralizing activity (RFFIT), Titer [1] | neutralizing activity (RFFIT) [2] | neutralizing activity (RFFIT), Titer [2] | neutralizing activity (RFFIT) [3] | neutralizing activity (RFFIT), Titer [3] | neutralizing activity (RFFIT) [4] | neutralizing activity (RFFIT), Titer [4] | neutralizing activity (RFFIT) [5] | neutralizing activity (RFFIT), Titer [5] | neutralizing activity (RFFIT) [6] | neutralizing activity (RFFIT), Titer [6] | neutralizing activity (RFFIT) [7] | neutralizing activity (RFFIT), Titer [7] | neutralizing activity (RFFIT) [8] | neutralizing activity (RFFIT), Titer [8] | neutralizing activity (RFFIT) [9] | neutralizing activity (RFFIT), Titer [9] | neutralizing activity (RFFIT) [10] | neutralizing activity (RFFIT), Titer [10] | also measured
1 | antibody 1 (antibody, V domains shown) VH: VQLLQESGPGLAKPSETLSLICTVSGGSISRRRDYWGWIRQPPGRGLEWIGSFFHRGSTYYNPSLESRVSISVDPSKNQFSLHLSSVTVADTAVYYCARHPSTPFAEYLLLPDAFDSWGQGTLVTVSS VL: DIVMTQSPATLSVSPGERATLSCRASQSVRSSLAWYQQRPGQAPRLLISGASTRATDIPARLSGSGSGTEFTLTVSSLQSEDFAVYYCQQYSDWPLTFGGGTKVEIKR | 1.05 IU/mL and 5260 IU/mg | 50 | 0.36 IU/mL and 1790 IU/mg | 50 | 0.7 IU/mL and 3520 IU/mg | 95 | 2 IU/mL and 10000 IU/mg | 56 | 0.51 IU/mL and 2530 IU/mg | 19 | 2.3 IU/mL and 2290 IU/mg | 320 | 0.4 IU/mL and 2000 IU/mg | 54 | 0.4 IU/mL and 2000 IU/mg | 50 | 7.6 IU/mL and 7590 IU/mg | 1100 | 2.5 IU/mL and 2500 IU/mg | 250 | neutralizing activity (RFFIT) [11]: 0.53 IU/mL and 2670 IU/mg; neutralizing activity (RFFIT), Titer [11]: 16; neutralizing activity (RFFIT) [12]: 0.36 IU/mL and 1810 IU/mg; neutralizing activity (RFFIT), Titer [12]: 145; neutralizing activity (RFFIT) [13]: 0.39 IU/mL and 1960 IU/mg; neutralizing activity (RFFIT), Titer [13]: 11; neutralizing activity (RFFIT) [14]: 1.64 IU/mL and 8210 IU/mg; neutralizing activity (RFFIT), Titer [14]: 230; neutralizing activity (RFFIT) [15]: 1.16 IU/mL and 5800 IU/mg; neutralizing activity (RFFIT), Titer [15]: 145; neutralizing activity (RFFIT) [16]: 0.38 IU/mL and 1920 IU/mg; neutralizing activity (RFFIT), Titer [16]: 250; neutralizing activity (RFFIT) [17]: 1.1 IU/mL and 1090 IU/mg; neutralizing activity (RFFIT), Titer [17]: 125; neutralizing activity (RFFIT) [18]: 0.33 IU/mL and 1670 IU/mg; neutralizing activity (RFFIT), Titer [18]: 60; neutralizing activity (RFFIT) [19]: 2.7 IU/mL and 2720 IU/mg; neutralizing activity (RFFIT), Titer [19]: 340
2 | antibody 2 (antibody, V domains shown) VH: EVQLVESGAEVKKPGASVKVSCKASGYTFTSYDISWVRQAPGQGLEWMGWISTYKGNTNFAQKFQDRVTLTTDTSTTTAYMELRSLTSDDTAVYYCARAKSHPFYDFWSAYYVPGAFDIWGQGTVVTVSS VL: not shown | 1.05 IU/mL and 5260 IU/mg | 50 | 1.79 IU/mL and 8930 IU/mg | 250 | 1.07 IU/mL and 5370 IU/mg | 145 | 10 IU/mL and 50000 IU/mg | 280 | 5.33 IU/mL and 26700 IU/mg | 200 | 9.3 IU/mL and 9290 IU/mg | 1300 | 0.31 IU/mL and 1560 IU/mg | 42 | 0.56 IU/mL and 2800 IU/mg | 70 | 7.6 IU/mL and 7590 IU/mg | 1100 | 2.5 IU/mL and 2500 IU/mg | 250 | neutralizing activity (RFFIT) [11]: 5.67 IU/mL and 28300 IU/mg; neutralizing activity (RFFIT), Titer [11]: 170; neutralizing activity (RFFIT) [12]: 0.43 IU/mL and 2120 IU/mg; neutralizing activity (RFFIT), Titer [12]: 170; neutralizing activity (RFFIT) [13]: 2.5 IU/mL and 12500 IU/mg; neutralizing activity (RFFIT), Titer [13]: 70; neutralizing activity (RFFIT) [14]: 2 IU/mL and 10000 IU/mg; neutralizing activity (RFFIT), Titer [14]: 280; neutralizing activity (RFFIT) [15]: 3.12 IU/mL and 15600 IU/mg; neutralizing activity (RFFIT), Titer [15]: 390; neutralizing activity (RFFIT) [16]: 0.68 IU/mL and 3380 IU/mg; neutralizing activity (RFFIT), Titer [16]: 440; neutralizing activity (RFFIT) [17]: 11.3 IU/mL and 11300 IU/mg; neutralizing activity (RFFIT), Titer [17]: 1300; neutralizing activity (RFFIT) [18]: 3.47 IU/mL and 17400 IU/mg; neutralizing activity (RFFIT), Titer [18]: 625; neutralizing activity (RFFIT) [19]: 8.8 IU/mL and 8800 IU/mg; neutralizing activity (RFFIT), Titer [19]: 1100
